In patent publication US9814672B2, “Echogenic vehicle for clinical delivery of plasminogen activator and other fibrin-binding therapeutics to thrombi” (priority 2007, dated 2017):
Read-outs that look alike come from different tables or passages of the source.

Target: T1, fibrin (Homo sapiens, UniProt P02671+P02675+P02679)
T1 construct: purchased Calbiochem (EMD Biosciences, Inc., La Jolla, Calif.)
T1 sequence (P02671 36-629 limits assumed): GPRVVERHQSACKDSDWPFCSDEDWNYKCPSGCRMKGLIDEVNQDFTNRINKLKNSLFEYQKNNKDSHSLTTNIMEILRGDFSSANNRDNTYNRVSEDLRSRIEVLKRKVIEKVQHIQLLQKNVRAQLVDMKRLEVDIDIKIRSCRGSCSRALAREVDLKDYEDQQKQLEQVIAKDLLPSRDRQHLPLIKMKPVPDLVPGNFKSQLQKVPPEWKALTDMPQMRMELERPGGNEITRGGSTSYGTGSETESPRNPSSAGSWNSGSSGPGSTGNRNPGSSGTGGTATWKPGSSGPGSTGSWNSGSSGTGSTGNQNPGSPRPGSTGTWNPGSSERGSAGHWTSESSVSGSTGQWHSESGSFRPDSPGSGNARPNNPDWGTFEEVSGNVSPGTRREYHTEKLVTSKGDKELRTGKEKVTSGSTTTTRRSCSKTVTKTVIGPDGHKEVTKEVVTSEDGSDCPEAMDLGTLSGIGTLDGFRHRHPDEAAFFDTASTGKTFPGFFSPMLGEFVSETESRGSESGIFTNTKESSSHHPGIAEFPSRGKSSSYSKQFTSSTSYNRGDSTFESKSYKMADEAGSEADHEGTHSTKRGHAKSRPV
T1 sequence (P02675 45-491 limits assumed): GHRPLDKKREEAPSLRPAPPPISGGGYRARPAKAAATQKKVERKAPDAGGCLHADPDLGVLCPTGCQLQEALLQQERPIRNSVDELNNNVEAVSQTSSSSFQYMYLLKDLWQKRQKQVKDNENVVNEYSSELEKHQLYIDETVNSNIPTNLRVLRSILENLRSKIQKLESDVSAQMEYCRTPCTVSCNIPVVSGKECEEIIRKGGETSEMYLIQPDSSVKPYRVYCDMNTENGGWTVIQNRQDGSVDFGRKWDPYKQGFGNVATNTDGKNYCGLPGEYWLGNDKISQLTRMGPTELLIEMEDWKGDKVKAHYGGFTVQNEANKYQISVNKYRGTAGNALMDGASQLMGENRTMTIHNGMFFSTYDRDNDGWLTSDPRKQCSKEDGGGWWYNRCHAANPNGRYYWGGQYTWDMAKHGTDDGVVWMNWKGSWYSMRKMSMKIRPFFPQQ
T1 sequence (P02679 27-437 isoform P02679-2 limits assumed): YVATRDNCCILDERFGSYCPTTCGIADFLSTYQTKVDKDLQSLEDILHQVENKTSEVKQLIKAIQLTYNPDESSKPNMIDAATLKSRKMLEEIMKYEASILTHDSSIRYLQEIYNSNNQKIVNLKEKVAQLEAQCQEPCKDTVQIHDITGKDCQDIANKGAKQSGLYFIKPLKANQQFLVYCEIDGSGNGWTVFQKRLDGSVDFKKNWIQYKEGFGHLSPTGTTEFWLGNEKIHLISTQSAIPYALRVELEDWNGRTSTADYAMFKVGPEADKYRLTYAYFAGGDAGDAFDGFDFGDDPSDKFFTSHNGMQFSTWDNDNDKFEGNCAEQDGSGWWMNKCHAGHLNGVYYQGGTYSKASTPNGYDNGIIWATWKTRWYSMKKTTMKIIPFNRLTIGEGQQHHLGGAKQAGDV
Assay: Two-stage fibrin pad ELISA, Scatchard and van't Hoff analysis
Format: binding
Conditions: for ΔH°: van't Hoff plot
Description: Added 100 μl 0.2% BSA/PBS to each well and incubated at 37° C. for 1 hour. All subsequent incubations were also at 37° C. Aspirated the wells and washed the plate 3× with PBS-T. Added Activase dilutions (10, 5, 2.5, 1.25, and 0.625 μg/ml PBS-T) to replicate wells ([…]). Incubated for 2 hours. Removed the contents of each well and pooled all samples within each dilution. Stored pooled samples at 4° C. For tPA-ELIP dilutions (in PBS), the third wash before adding the samples was with PBS. Stored the pooled tPA-ELIP samples in polypropylene tubes.
Added monoclonal anti-tPA capture antibody (Ab) (5 μg/ml coating buffer; […]) to rows B, C, E and G of a fresh microplate. Incubated in a humidified chamber at 4° C. overnight. All subsequent incubations were in humidified chambers at 37° C. at volumes of 50 μl/well, followed by aspiration of wells and 3× washes with PBS-T. Blocked all rows with conjugate buffer for 1 hour. Added tPA standards (50, 25, 12.5, 6.25 and 3.13 ng/ml) and pooled sample dilutions (in PBS-T) in duplicate to sample (B, C, E, G) and background (A, D, F, H) wells. Incubated for 2 hours. Added secondary detection Ab (10 μg sheep anti-tPA/ml 0.1% BSA in PBS-T) to all wells and incubated 1 hour, followed by a conjugate incubation (3,000× diluted with conjugate buffer; 1 hour). Added 50 μl of substrate buffer+500 of substrate (1 tablet/5 ml substrate buffer) to each well. Incubated at 37° for 15 minutes. Immediately quenched with 5 μl of 1M sodium hydroxide/well. Read the plate at 405 nm. Determined net absorbance (A405) by subtracting background OD from sample OD (e.g., B4-A4 or E7-F7).
Calculated the undiluted tPA concentrations of each pooled sample from the standard curve. These represented the free fractions ([F]) of the sample dilutions after equilibrium incubation with fibrin. Obtained the bound concentrations ([B]) by subtracting the free values from the total tPA concentration of the starting dilutions. Prepared Scatchard plots by plotting [B] (x-axis) vs. B/F (y-axis). The slope=−Kassoc and the y-intercept=Kassoc[n], where [n] was the concentration of exposed tPA binding sites on the fibrin pads.
Dilutions of untreated, sham-treated (control) and PPACK-treated (tPA(P)) tPA, as well as tPA(P) conjugated to ELIP (tPA(P)-ELIP), were incubated on replicate fibrin pads, prepared in microplate wells according to a modification of the method of Edgell et al. (1996). Human thrombin was added to a solution of 0.5 mg/ml of human fibrinogen in 0.02M phosphate-buffered saline, pH 7.4 (PBS), to a final concentration of 0.125 IU thrombin/ml; 100 μl of this solution was immediately added to each well and incubated at 37° C. for 45 minutes, followed by overnight drying of the plate at 45° C. After incubation with 100 μl/well of 0.2% BSA in PBS for 1 hour, samples (100 μl/well) were incubated for 2 hours at 37° C. For thermodynamic analyses, this incubation was performed at three temperatures (5, 24 and 37° C.). In order to determine the concentration of free tPA remaining in solution after incubation of tPA with fibrin, from which the concentration of bound tPA could be calculated for Scatchard analysis, the contents of duplicate wells were recovered, pooled and subsequently assayed for immunoreactive tPA in a standard quantitative sandwich ELISA.
Briefly, Nunc MaxiSorp microtiter plates were coated with 5 μg/ml of a monoclonal anti-tPA capture antibody (Ab) in 0.05M sodium bicarbonate, pH 9.6, overnight at 4° C. All incubation volumes were 50 μl/well. One-half of wells were left uncoated for determination of nonspecific binding. After aspirating well contents, all wells were blocked with conjugate buffer (1% BSA in 0.05M Tris buffer, pH 8.0, with 0.02% sodium azide) for 1 hour. From this point, all incubations were at 37° C. Each incubation was followed by aspiration of well contents and washes (3×) with PBS-T (PBS with 0.05% Tween 20). […]

tPA: Recombinant tissue-plasminogen activator (Activase®, Genentech Inc.), used as the thrombolytic agent [reference compound]
other fibrin-binding affinity in the presence of 50 mM EACA (50 mM EACA): non-measurable level
Kd (50 mM EACA, read-out: remaining fibrin-binding affinity in the presence of 50 mM EACA): 0.0329 µM
Kd (37° C., SE, n=3, read-out: High-affinity interaction dissociation constant (KD)): 0.00581 ± 0.00404 µM
Kd (37° C., read-out: Low-affinity interaction KD): 0.0304 ± 0.0147 µM
Kassoc 1 (Example 12, 37° C.): 3.13e+08 M⁻¹
Kassoc 2 (Example 12, 37° C.): 3.53e+07 M⁻¹
Kd (Example 12, 37° C., PBS-T, read-out: higher affinity on Scatchard plot): 0.00319 µM
Kd (Example 12, 37° C., PBS-T, read-out: lower affinity on Scatchard plot): 0.0283 µM
High affinity (Scatchard plot) (representative plot, PBS-T, 37° C., r=0.883): 2e+09 M⁻¹
low affinity (Scatchard plot) (representative plot, PBS-T, 37° C., r=0.904): 1.95e+08 M⁻¹

tPA(P): Human recombinant tPA (Activase®) irreversibly inhibited with D-phe-L-pro-L-arg-chloromethyl ketone (PPACK)
ΔS° (High affinity): −33.8 cal/mole°
Kassoc (High affinity, 278 K): 4.67e+09 M⁻¹
ΔG° (High affinity, 278 K): -12.3 kcal/mol
Kassoc (High affinity, 297 K): 5.04e+08 M⁻¹
ΔG° (High affinity, 297 K): -11.8 kcal/mol
Kassoc (High affinity, 310 K): 7.65e+07 M⁻¹
ΔG° (High affinity, 310 K): -11.2 kcal/mol
ΔH° (High affinity): -21.7 kcal/mol
ΔS° (Low affinity): −9.93 cal/mole°
Kassoc (Low affinity, 278 K): 5.33e+08 M⁻¹
ΔG° (Low affinity, 278 K): -11.1 kcal/mol
Kassoc (Low affinity, 297 K): 1.2e+08 M⁻¹
ΔG° (Low affinity, 297 K): -11.0 kcal/mol
Kassoc (Low affinity, 310 K): 3.91e+07 M⁻¹
ΔG° (Low affinity, 310 K): -10.8 kcal/mol
ΔH° (Low affinity): -13.9 kcal/mol
Kd (S.E., n=3, read-out: High-Affinity KD @ 37° C.): 0.0104 ± 0.0014 µM
Kd (abstract of Example 15, read-out: fibrin-binding KD, higher affinity, after PPACK inactivation): ~0.002 µM
Kd (abstract of Example 15, read-out: fibrin-binding KD, lower affinity, after PPACK inactivation): 0.033 µM
